Measurements published in patent publication US8802376B2, “Methods for identifying candidate cytotoxic antibody molecules” (Agency for Science, Technology and Research, priority 2010, dated 2014).
One block for each molecule: values may come before it.

What was measured:
[1] = system: human embryonic stem cells (hESC); test: relative viability of hESC in response to mAb84 with added trisaccharide; assay type: cell-based
Description: (§1) The importance of the trisaccharide Fucα1-2Galβ1-3GlcNA in mediating the cytotoxic interaction of mAb84 on human embryonic stem cells (hESC) was investigated by assessing the ability of synthetic soluble trisaccharide Fucα1-2Galβ1-3GlcNA to (i) inhibit the binding of mAb84 to hESC and (ii) reduce the cytotoxic effect of mAb84 on hESC.
(§2) mAb84 (25 pM, 5 μg) in 200 μl volume was added to 2×10^5 hESC and preincubated for 15 minutes prior to addition of synthetic soluble trisaccharide Fucα1-2Galβ1-3GlcN (in concentrations of 0 (control), 0.4 mM, 0.8 mM, 2 mM, 4 mM).

[2] = system: human embryonic stem cells (hESC); test: inhibition of mAb84 binding to hESC by soluble trisaccharide; assay type: cell-based; details: trisaccharide 0.4 mM, 0.8 mM, 2 mM, 4 mM; mAb84 (25 pM, 5 μg) in 200 μl, 2×10^5 hESC
Description: as §1, §2

[3] = target: T1, PODXL on the surface of hESCs (Homo sapiens, UniProt O00592); test: kinetics of mAb84 binding to PODXL on the surface of hESCs
T1 construct: mAb 84 only detected hESC—PODXL but not expressed PODXL; endogenous in cells; host or cells: hESC (HES-3)
T1 sequence (O00592 23-558): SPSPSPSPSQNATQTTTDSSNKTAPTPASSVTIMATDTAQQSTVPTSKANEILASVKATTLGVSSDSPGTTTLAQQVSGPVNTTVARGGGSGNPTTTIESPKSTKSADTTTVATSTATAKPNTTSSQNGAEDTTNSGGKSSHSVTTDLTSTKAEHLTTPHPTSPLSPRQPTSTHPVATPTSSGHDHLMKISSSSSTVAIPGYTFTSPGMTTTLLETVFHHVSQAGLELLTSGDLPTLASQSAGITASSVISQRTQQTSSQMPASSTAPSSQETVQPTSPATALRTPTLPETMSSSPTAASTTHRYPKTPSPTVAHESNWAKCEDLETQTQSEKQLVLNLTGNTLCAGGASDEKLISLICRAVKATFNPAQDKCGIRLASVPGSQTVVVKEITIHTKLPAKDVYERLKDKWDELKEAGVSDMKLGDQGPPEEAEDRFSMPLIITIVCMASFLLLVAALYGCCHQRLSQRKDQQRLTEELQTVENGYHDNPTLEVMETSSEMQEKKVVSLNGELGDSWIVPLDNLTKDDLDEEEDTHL

[4] = target: T2, PODXL from hESC (HES-3) (Homo sapiens, UniProt O00592); test: Western blot of PODXL from hESC probed with antibodies; assay type: binding; details: SDS-PAGE
T2 construct: mAb 84 only detected hESC—PODXL but not expressed PODXL; endogenous in cells; host or cells: hESC (HES-3)
T2 sequence (O00592 23-558): T1 sequence (O00592 23-558)
Source text: (§3) The gene encoding PODXL was isolated and sequenced from hESC. The gene was cloned into vectors and expressed either unglycosylated (in vitro TnT) or in mammalian cells (HEK or COS cells which are capable of glycosylating the expressed protein).
(§4) The proteins obtained were then resolved on SDS-PAGE, Western blotted and probed with antibodies. The antibodies used were commercially available anti-PODXL antibodies (monoclonal and polyclonal) and mAb 84. […] For COS and HEK expressed PODXL, only monoclonal anti-PODXL detected both the expressed PODXL and PODXL from hESC.
In either COS or HEK cells, PODXL is glycosylated (and so has a higher MW). However the band is lower than PODXL expressed in hESC (HES-3). Also, mAb 84 only detected hESC—PODXL but not expressed PODXL. This led to the conclusion that there is a stem cell-specific modification (glycosylation) to PODXL. Without being bound by theory, it appears that when PODXL is glycosylated by stem cells the resulting glycan structure is different that of PODXL glycosylated by other cells.

[5] = target: T3, unglycosylated PODXL (in vitro transcription and translation (TnT)) (Homo sapiens, UniProt O00592); test: Western blot of in vitro TnT-expressed PODXL probed with antibodies; assay type: binding; details: SDS-PAGE
T3 construct: made in house; host or cells: in vitro transcription and translation (cell-free)
T3 sequence (O00592 23-558): T1 sequence (O00592 23-558)
Source text: as §3, §4

[6] = system: day 22 EB; test: mAb 84-mediated killing on day 22 EB; assay type: cell-based, human
[7] = system: undifferentiated human embryonic stem cells (hESC); details: cited from earlier work
[8] = system: hESC; details: hESC treated with mAb 84 prior to transplantation into SCID mice; cited from earlier work
[9] = system: day 8 embyroid bodies; test: mAb 84 binding reactivity to embryoid bodies; assay type: cell-based, human
[10] = system: IPSCs; details: WO/2010/033084; cited from earlier work
[11] = target: T4, PODXL over-expressed in HEK and COS cells (Homo sapiens, UniProt O00592); test: Western blot of COS and HEK expressed PODXL probed with antibodies; assay type: binding; details: SDS-PAGE
T4 construct: expressed in transfected cells; host or cells: HEK or COS cells
T4 sequence (O00592 23-558): T1 sequence (O00592 23-558)
Source text: as §3, §4

[12] = system: FGF2-starved hESC; test: mAb 84-mediated killing on FGF2-starved hESC; assay type: cell-based, human
[13] = Printed Glycan Array V4.1 (Consortium for Functional Glycomics) binding
Description: Buffers: • TSM=20 mM Tris-HCl, pH 7.4 150 mM NaCl, 2 mM CaCl2, 2 mM MgCl2 • TSM Wash Buffer (TSMW)=TSM Buffer+0.05% Tween-20 • TSM Binding Buffer (TSMBB)=TSM buffer+0.05% Tween 20+1% BSA
Protocol: • 1. Make working stocks of washing buffers (TSM, TSM Wash Buffer, and H2O) or collect reagents and bring to room temperature if they have been in the refrigerator. • 1.1. Buffer (A) TSM-20 mM Tris-HCl, pH 7.4 150 mM NaCl, 2 mM CaCl2, 2 mM MgCl2 • 1.2. Buffer (B) TSM Wash Buffer (TSMW)—TSM Buffer+0.05% Tween-20 • 1.3. Buffer (C) TSM Binding Buffer (TSMBB)—TSM buffer+0.05% Tween 20+1% BSA • 1.4. dH20 • 2. Prepare 100 μl of sample by diluting antibody in TSMBB or appropriate Binding Buffer based on properties of Antibody to a final concentration of 5-50 μg/ml or an appropriate concentration required for the analysis. • mAb84 antibodies were added at a concentration of 50 μg/ml. • mAb85 antibodies were added at a concentration of 50 μg/ml. • 3. Remove slide(s) from dessicator and label slide with sample name near barcode, outside of the black marks. • 4. […]
mAb84 antibodies were contacted with the glycans. […] Bound antibodies were detected using AlexaFluor-488-labeled secondary antibodies as described above. The secondary antibodies were then detected using a fluorescence scanner. Binding is presented in relative fluorescence units (RFU). […]

Molecule: CC(=O)N[C@H]1C(O)O[C@H](CO)[C@@H](O)[C@@H]1O[C@@H]1O[C@H](CO)[C@H](O)[C@H](O)[C@H]1O[C@@H]1O[C@@H](C)[C@@H](O)[C@@H](O)[C@@H]1O (stereo partly shown) [Fucα1-2Galβ1-3GlcNAc]
cytotoxic effect of mAb84 on hESC (relative viability) ([1]; increasing concentrations of trisaccharide 0.4 mM, 0.8 mM, 2 mM, 4 mM): reduction | cytotoxic effect of mAb84 on hESC (relative viability) ([1]; trisaccharide 2 mM): abolished | cytotoxic effect of mAb84 on hESC (relative viability) ([1]; trisaccharide 4 mM): abolished | inhibition of mAb84 binding to hESC [2]: dose dependently inhibit

koff [3]: 0.0029 s⁻¹ | kon [3]: 7.1 e4 M^−1 s^−1 | detection of PODXL from hESC [4]: detected | detection of unglycosylated PODXL [5]: did not detect | detection of unglycosylated PODXL ([5]; listed as mAb 84): does not bind | binding reactivity compared to undifferentiated hESC [9]: reduced | detection of expressed (glycosylated) PODXL [11]: does not bind | relative binding (binding of mAb84 divided by binding of mAb85 to the same glycans) ([13]; 9 glycans containing Fucα1-2Galβ1-3GlcNAc, RFU values): at least 37 times | binding to glycans in the glycan array ([13]; 465 glycans, V4.1 array, Alexa488 labeled secondary antibody): selectively bind
B1: mAb84: IgM monoclonal antibody which specifically binds and kills undifferentiated human embryonic stem cells; antigen is PODXL (antibody, V domains shown)
VH: QVQLQQSGGGLVQPGGSMKLSCVASGFTFSNYWMNWVRQSPEKGLEWVAEIRLKSNNYATHYAESVKGRFTISRDDSKSSVYLQMNNLRAEDTGIYYCTGERAWGQGTTVTVSS
VL: DIELTQSPAIMSASPGEKVTMTCSASSSVNYMYWYQQKPGSSPRLLIYDTSNLASGVPVRFSGSGSGTSYSLTISRMEAEDAATYYCQQWSSYPYTFGGGTKLEIKR
modifications: Synthetic sequenceVH chain of mAb 84; Synthetic sequence VL chain of mAb 84
notes: antigen is PODXL
mAb 84-mediated killing [6]: loss | cytotoxicity against undifferentiated hESCs ([7]; WO 2007/102787): cytotoxic | incubation time to cell death of undifferentiated hESC ([7]; undifferentiated hESC): ≤ 30 min | tumour formation [8]: absence of tumour formation | cytotoxicity against IPSCs [10]: cytotoxic | mAb 84-mediated killing [12]: decrease
